Measurements from patent publication US20210292414A1 (H LUNDBECK A S, published 2021).
Where a chain is given by its changes, count along the chain named. Like-named read-outs stand apart in the source and are kept apart here. Each block holds one binder with its values, some of them ahead of it.

Tests used:
Test in all cases: BLI (Octet384RED)
[1] = target: T1, Sortilin SORTECDBAP_hB45678 (human/tetraodon chimera)
T1 construct: Shuffle construct: chimeric human/tetraodon Sortilin ECD with BAP tag
T1 chain: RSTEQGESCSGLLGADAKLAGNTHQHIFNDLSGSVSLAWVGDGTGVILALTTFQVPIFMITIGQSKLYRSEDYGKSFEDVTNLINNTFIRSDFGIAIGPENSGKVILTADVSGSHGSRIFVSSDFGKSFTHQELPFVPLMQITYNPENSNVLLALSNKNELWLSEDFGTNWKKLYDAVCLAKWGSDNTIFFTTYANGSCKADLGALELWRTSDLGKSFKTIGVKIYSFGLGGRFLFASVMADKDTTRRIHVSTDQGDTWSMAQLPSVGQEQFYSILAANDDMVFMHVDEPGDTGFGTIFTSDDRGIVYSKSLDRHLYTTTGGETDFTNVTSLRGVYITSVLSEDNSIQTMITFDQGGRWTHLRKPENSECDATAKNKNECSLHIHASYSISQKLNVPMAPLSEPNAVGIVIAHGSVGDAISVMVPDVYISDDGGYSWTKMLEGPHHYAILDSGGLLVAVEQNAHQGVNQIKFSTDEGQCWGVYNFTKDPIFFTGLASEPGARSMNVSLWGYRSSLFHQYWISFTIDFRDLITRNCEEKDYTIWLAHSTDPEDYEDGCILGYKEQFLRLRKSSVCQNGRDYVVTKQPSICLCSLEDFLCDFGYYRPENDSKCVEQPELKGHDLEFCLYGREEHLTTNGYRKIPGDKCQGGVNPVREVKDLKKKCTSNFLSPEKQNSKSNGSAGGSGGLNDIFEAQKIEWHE

[2] = target: T2, Sortilin SORTECDBAP_hB06-10 (human/tetraodon chimera)
T2 construct: Shuffle construct: chimeric human/tetraodon Sortilin ECD with BAP tag
T2 chain: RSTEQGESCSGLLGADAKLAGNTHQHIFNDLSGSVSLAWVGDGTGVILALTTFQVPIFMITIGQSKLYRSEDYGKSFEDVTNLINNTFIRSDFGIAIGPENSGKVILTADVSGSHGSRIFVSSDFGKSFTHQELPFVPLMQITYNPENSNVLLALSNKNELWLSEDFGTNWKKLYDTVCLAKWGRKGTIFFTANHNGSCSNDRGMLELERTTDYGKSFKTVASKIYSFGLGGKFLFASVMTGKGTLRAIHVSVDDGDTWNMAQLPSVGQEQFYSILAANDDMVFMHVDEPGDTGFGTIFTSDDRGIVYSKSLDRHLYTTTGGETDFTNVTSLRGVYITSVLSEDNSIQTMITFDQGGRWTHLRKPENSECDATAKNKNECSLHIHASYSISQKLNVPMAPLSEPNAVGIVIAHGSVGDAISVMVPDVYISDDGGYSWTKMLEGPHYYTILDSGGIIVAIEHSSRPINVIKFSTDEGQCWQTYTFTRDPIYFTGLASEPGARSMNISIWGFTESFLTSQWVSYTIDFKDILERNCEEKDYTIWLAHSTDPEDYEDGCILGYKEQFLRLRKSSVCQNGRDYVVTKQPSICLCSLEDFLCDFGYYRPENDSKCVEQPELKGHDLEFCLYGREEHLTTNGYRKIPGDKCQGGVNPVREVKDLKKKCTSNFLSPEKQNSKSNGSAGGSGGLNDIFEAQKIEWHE

[3] = target: T3, Sortilin SORTECDBAP_hB12390 (human/tetraodon chimera)
T3 construct: Shuffle construct: chimeric human/tetraodon Sortilin ECD with BAP tag
T3 chain: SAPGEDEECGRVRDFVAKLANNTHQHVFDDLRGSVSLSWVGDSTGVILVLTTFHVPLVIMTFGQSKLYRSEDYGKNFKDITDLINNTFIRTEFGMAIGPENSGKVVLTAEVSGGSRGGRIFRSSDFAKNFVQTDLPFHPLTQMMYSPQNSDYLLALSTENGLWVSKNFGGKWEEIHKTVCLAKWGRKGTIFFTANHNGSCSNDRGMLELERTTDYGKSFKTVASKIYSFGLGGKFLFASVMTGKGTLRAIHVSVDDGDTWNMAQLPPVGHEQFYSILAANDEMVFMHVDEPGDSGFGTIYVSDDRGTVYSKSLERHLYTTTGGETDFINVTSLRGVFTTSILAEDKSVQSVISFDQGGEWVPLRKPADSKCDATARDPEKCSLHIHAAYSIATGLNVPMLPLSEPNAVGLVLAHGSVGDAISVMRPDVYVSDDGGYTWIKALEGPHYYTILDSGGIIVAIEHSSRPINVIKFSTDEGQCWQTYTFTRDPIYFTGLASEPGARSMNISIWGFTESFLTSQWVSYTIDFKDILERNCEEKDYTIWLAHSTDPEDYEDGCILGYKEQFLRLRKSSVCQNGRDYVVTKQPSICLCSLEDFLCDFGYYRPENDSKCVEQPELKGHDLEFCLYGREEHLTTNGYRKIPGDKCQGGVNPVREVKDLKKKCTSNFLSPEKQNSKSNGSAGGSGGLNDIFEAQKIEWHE

hBack = target: T4, hBack
T4 chimeric human/tetraodon Sortilin extracellular region, BAP tag: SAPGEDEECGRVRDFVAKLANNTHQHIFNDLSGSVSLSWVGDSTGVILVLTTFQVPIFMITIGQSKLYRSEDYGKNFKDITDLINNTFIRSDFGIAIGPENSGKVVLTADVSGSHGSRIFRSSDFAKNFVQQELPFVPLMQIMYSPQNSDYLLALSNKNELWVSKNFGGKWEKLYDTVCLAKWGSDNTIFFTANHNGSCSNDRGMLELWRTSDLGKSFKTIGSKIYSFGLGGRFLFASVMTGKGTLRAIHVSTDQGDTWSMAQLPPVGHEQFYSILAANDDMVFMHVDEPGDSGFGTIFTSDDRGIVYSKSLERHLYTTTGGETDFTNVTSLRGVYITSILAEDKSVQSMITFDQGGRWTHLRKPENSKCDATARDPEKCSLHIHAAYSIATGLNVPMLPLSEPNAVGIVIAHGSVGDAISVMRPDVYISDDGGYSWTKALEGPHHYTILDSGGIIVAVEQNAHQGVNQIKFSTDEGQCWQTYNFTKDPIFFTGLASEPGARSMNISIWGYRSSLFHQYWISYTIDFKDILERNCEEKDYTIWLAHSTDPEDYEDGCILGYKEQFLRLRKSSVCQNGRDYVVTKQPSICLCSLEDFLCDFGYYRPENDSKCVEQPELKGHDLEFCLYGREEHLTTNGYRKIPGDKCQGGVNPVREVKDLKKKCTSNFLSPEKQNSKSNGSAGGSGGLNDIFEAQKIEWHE

[4] = target: T3, Sortilin SORTECDBAP_hB12390

B2: Antibody 6003-381 (antibody, human IgG1, V domains shown)
VH: QVQLVESGGGVVQPGRSLRLSCAASGFTFSNYVMHWVRQAPGKGLEWVAAISYNGNNKYYADSVKGRFTISRDNSKNTLYLQMNSLRAEDTAVSYCAKGLNDAFDIWGQGTMVTVSS
VL: not shown
EC50 [4]: 1.93 ng/mL

B3: Antibody 6003-822 (antibody, human IgG1, V domains shown)
VH: EVQLLESGGGLVQPGESLTLSCAASGFTLSSYAMSWVRQAPGKGLEWVSSISGRLGTTYYAASVKGRFTISRDNSKNTLYLQMNSLRAEDTAIYSCAKAPSDAFDIWGQGTMVTVSS
VL: EIVLTQSPATLSLSPGERATLSCRASQSVSSYLAWYQQKPGQAPRLLIYDASNRATGIPARFSGSGSGTDFTLTISSLEPEDFAVYYCQQRSNWPIFTFGPGTKVDIK
EC50 [1]: 2.08 ng/mL | EC50 [2]: 1.49 ng/mL | EC50 [3]: 1.89 ng/mL | EC50 (hBack): 2.59 ng/mL

B8: IgG1-6003-910 (antibody, V domains shown)
VH: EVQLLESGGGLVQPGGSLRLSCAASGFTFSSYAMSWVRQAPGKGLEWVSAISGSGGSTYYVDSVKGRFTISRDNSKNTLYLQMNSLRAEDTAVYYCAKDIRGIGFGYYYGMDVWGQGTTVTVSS
VL: EIVLTQSPATLSLSPGERATLSCRASQSVSSYLVWYQQKPGQAPRLLIYDASNRATGIPARFSGSGSGTDFTLTISSLEPEDFAVYYCQQRSNWPPTFGQGTRLEIK
notes: also called Antibody 6003-910
EC50 [1]: 2.23 ng/mL | EC50 [2]: 1.16 ng/mL | EC50 [3]: 1.84 ng/mL | EC50 (hBack): 1.54 ng/mL

B9: Antibody 6003-030 (antibody, human IgG1, V domains shown)
VH: EVQVLESGGGLVQPGGSLRLSCAASGFTFSSYAMSWVRQAPGKGLEWVSTISGRGGNTYYADSVKGRFTISRDNSKNTLYLQMDSLRAEDTAVYYCAIIPSLYWYFDLWGRGTLVTVSS
VL: B8 VL with V34A, P96L, Q100G, R103K, L104V
notes: Human antibody (HuMab); also called antibody 30; mAb30
EC50 [4]: 0.82 ng/mL

B11: Antibody 6003-083 (antibody, human IgG1, V domains shown)
VH: B9 VH with V4L, N57S, D84N, I99V, P100A, S101T, L102M
VL: B8 VL with V34A, P96I
EC50 [4]: 0.86 ng/mL

B14: Antibody 6003-056 (antibody, human IgG1, V domains shown)
VH: B9 VH with A23V, S35H, T50A, N57S, D84N
VL: B8 VL with Y32F, V34A, P96L, Q100G, R103K, L104V
EC50 [4]: 1.42 ng/mL

The remaining lines, values ahead:

EC50 [1]: 4.16 ng/mL | EC50 [2]: 2.63 ng/mL | EC50 [3]: 3.36 ng/mL | EC50 (hBack): 3.2 ng/mL
B1: Antibody 6003-799 (antibody, human IgG1, V domains shown)
VH: B2 VH with N31S, V33G, A49T, A50V, N54D, N56S, S94Y, G99L, L100T, N101G
VL: B3 VL with A34V, D50H, I96R, F97I, P101Q, K104R, V105L, D106E

EC50 [1]: 3.45 ng/mL | EC50 [2]: 2.44 ng/mL | EC50 [3]: 3.36 ng/mL | EC50 (hBack): 2.72 ng/mL
B4: Antibody 6003-886 (antibody, human IgG1, V domains shown)
VH: QVQLVQSGAEVKKPGASVKVSCKASGYTFTKYGISWVRQAPGQGLEWMGWISAYNGNTNYAQKLQDRVTMTTDTFTSTAYMELRSLRSDDTAVYFCARDGPLTGDFTFYGMDVWGQGTTVTVSS
VL: B3 VL with I96P

EC50 [4]: 2.21 ng/mL
B5: IgG1-6003-408 (antibody, V domains shown)
VH: EVQLVESGGGLVKPGGSLRLSCAASGFTFSSYSMNWVRQAPGKGLEWVSSISSSSSYIYYADSVKGRFTISRDNAKNSLYLQMNSLRAEDTAVYYCARRRIAAAGTGYGAFDIWGQGTMVTVSS
VL: ARQLTQSPSSLSASVGDRVTITCRASQGITSALAWYQQKPGKVPKLLIYDASSLESGVPSRFSGSGSGTDFTLTISSLQPEDFATYYCQQFNGYPMFSFGQGTKLEII
notes: also called Antibody 6003-408

EC50 [4]: 3.63 ng/mL
B6: Antibody 6003-1277 (antibody, V domains shown)
VH: QVQLVQSGAEVKKPGASVKVSCKTSGYTFTHYGISWVRQAPGQGLEWMGWINTYNGNTKYAQKLQGRVTMTTDTSTSTAYMELRSLRSDDTAVYYCASLGRNFDYWGQGTLVTVSS
VL: not shown

EC50 [1]: 1.19 ng/mL | EC50 [2]: 0.91 ng/mL | EC50 [3]: 1.06 ng/mL | EC50 (hBack): 1.16 ng/mL
B7: Antibody 6003-900 (antibody, human IgG1, V domains shown)
VH: EVQLVESGGGLVKPGGSLRLSCAASGFTFSSYSMNWVRQAPGKGLEWVSSISSSSSYIYYADSVKGRFTISRDNAKNSLYLQMNSLRAEDTAVYYCARRGSGSYDAFDIWGQGTMVTVSS
VL: EIVLTQSPDFQSVTPKEKVTITCRASQSIGYSLHWYQQKPDQSPKLLIKYASQSFSGVPSRFSGSGSGTDFTLTINSLEAEDAAAYYCHQSSSLPLTFGGGTKVEIK
notes: also called antibody 900; Sortilin human antibody 900

EC50 [1]: 2.57 ng/mL | EC50 [2]: 1.12 ng/mL | EC50 [3]: 2.36 ng/mL | EC50 (hBack): 1.49 ng/mL
B10: IgG1-6003-972 (antibody, V domains shown)
VH: QVQLVESGGGVVQPGRSLRLSCAASGFTFSDYAMHWVRRAPGKGLEWVVVISYDGSNKYYADSVKGRFTISRDNSKNTLYLQMNSLRAEDTAVYYCARDPSGGWYFDLWGRGTLVTVSS
VL: B8 VL with V34A, V85L, N93H, P96R, R103K, L104V
notes: also called Antibody 6003-972

EC50 [4]: 1.86 ng/mL
B12: Antibody 6003-028 (antibody, human IgG1, V domains shown)
VH: B9 VH with V4L, N57S, D84N, I98N, I99L, P100Y, L102N
VL: B8 VL with Y32F, V34A, P96L, Q100G, R103K, L104V

EC50 [4]: 0.86 ng/mL
B13: Antibody 6003-1286 (antibody, human IgG1, V domains shown)
VH: B9 VH with V4L, D84N, T91A, I98N, P100Y, L102H
VL: B8 VL with S30N, V34A, P96L, Q100G, R103K, L104V
